The results in this text go back to PMC5702341, “Identification of Antibody and Small Molecule Antagonists of Ferroportin-Hepcidin Interaction” (Frontiers in Pharmacology, 2017).

Where a SMILES comes first, the peptide text is derived from it. Bridges are numbered along the chain shown (N, C = ends). Side-chain parts run from the residue outwards. The star is where a group is joined. X1 = Nc1ccc2c(c1)Oc1cc(N)ccc1C21OC(=O)c2cc(C(=O)*)ccc21; Ahx = NCCCCCC(=O)O

Test [1] has as its target T1, ferroportin-hepcidin interaction (T-REx/FPN-V5 cells) (Homo sapiens, UniProt Q9NP59).
T1 sequence (Q9NP59 1-571): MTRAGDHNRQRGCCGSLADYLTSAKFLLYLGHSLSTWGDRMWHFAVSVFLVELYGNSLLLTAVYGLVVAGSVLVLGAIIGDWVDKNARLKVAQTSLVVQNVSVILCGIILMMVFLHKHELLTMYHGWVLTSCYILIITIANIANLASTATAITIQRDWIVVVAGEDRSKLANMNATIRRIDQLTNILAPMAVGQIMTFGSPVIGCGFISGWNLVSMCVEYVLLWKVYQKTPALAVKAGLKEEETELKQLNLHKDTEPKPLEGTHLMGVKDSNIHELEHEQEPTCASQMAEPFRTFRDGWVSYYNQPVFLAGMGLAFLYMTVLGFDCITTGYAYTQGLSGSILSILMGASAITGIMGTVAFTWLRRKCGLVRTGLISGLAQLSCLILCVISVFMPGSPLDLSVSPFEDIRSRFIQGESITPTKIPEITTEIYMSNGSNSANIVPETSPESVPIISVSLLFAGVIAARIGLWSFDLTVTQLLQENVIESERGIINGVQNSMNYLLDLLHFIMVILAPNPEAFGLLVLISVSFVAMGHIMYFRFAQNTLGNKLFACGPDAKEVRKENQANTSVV
T1 sequence (P81172 60-84 partner): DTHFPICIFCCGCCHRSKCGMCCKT
Description: RhoG-hepcidin uptake assay. It counts as cell-based. The settings on record: compound 1 h prior to 250 nM RhoG-hepcidin for 1 h; read-out: IC50 inhibition of RhoG-hepcidin uptake. The text has this: (§1) In an effort to identify small molecule inhibitors of hepcidin-induced FPN internalization, we ran a small molecule screen using the cell-based iron response reporter assay described above. […] Molecules that prevented intracellular iron accumulation were further tested in the RhoG-hepcidin uptake and FPN internalization assays.

For test [2], the target named is T1, ferroportin-hepcidin interaction (T-REx/FPN-V5 cells). Description: RhoG-hepcidin reversibility (washout) assay. It counts as cell-based. The settings on record: for IC50: cells treated 1 h, washed to remove unbound compound, then RhoG-hepcidin, N = 3, read-out: IC50 blocking RhoG-hepcidin binding/uptake after washout. The method, then: T-REx™/FPN-V5 cells plated in 96-well Packard ViewPlates at 50,000 cells/well and induced overnight as described for the BLA screening assay. […] As a control, cells were treated identically except that compound was not removed before addition of RhoG-hepcidin. Cells were fixed with 4% formaldehyde (Thermo Fisher) and stained with Hoechst nuclear dye. RhoG-Hepc uptake per cell was measured by cellular imaging.
as §1
(A) T-REx™/FPN-V5 cells were induced overnight and treated with small molecules for 1 h prior to addition of RhoG-hepc for 2 h. Cells were fixed/permeabilized and stained with Ab 38G6; blue = nuclei, green = RhoG-hepcidin, red = FPN. Scale bar = 20 μm.
Reactivity with cell-based, folded FPN was assessed by the hepcidin uptake assay (Figure 9C); reactivity with the linear peptide was assessed by mass spectrometry (Figure 10A).

The subject of the next test is FPN (T-REx/FPN-V5 cells). The test can be described thus: RhoG-hepcidin binding and displacement at 0°C on FPN-expressing cells. Format: cell-based, human. The note with it: 2 h on ice, then 10X unlabeled hepcidin for 2 h on ice. The method, then: To verify this work, RhoG-hepcidin was incubated with either uninduced or induced cells at 0°C. Contrary to the previous report, RhoG-hepcidin bound to FPN at this low temperature. To assess the reversibility of hepcidin binding to FPN, we incubated FPN-expressing cells with RhoG-hepcidin at 0°C to prevent internalization; we then added excess unlabeled hepcidin to determine if the labeled hepcidin could be displaced. […] We confirmed that FPN was not internalized using antibody 45D8 (Figure 11A).
(A) T-REx™/FPN-V5 cells were allowed to equilibrate on ice for 15 min prior to addition of RhoG-hepcidin for 2 h on ice; 10X unlabeled hepcidin was added for 2 additional hours on ice. FPN was detected with Ab 45D8; scale bar = 20 μm. (B) Non-glycosylated FPN binds hepcidin and internalizes. T-REx™/FPN-V5 cells were treated ± 0.3 μg/ml tunicamycin (Tm) for 18 h, followed by treatment with 500 nM hepcidin (Hepc) for 5 h. Blot was probed with anti-V5 Ab for FPN detection and anti-cyclophilin as loading control. (C) Induced HEK-FPN-V5 cells were treated ± 0.25 μg/ml tunicamycin (Tm) for 18 h, followed by RhoG-hepcidin for 3 h; uptake was quantitated by cellular imaging (N = 4, mean ± sd).

Test [3] deals with ferroportin (T-REx/FPN-V5 cells) (Homo sapiens, UniProt Q9NP59). Description: cell-based.
Description: Cells were plated in 96-well Poly-D-Lysine coated plates (BD) at 50,000 cells/well and induced overnight with 10 ng/ml doxycycline (Clontech). […] FPN staining was completed as described above except that the incubations were performed at room temperature. […] Nuclei were stained with Hoechst dye. Cell surface or total FPN or intracellular hepcidin was quantitated with cellular imaging. Uninduced (non-FPN-expressing) cells served as a negative control. Images were captured from Arrayscan™ VTI (Thermo Fisher) equipped with Zeiss microscope optics and Hamamatsu ORCA®-ER CCD camera. Images were captured with 10X or 20X objectives and analyzed with the Spot Detector bioapplication. A minimum of 300 cells per well were analyzed for each condition.
T-REx™/FPN-V5 were plated in 384-well Poly-D-Lysine coated plates (BD) at 15,000 cell/well and induced overnight as described for RhoG-hepcidin uptake assay. […] Plates were scanned on Thermo Fisher ArrayScan™ HCS Reader and analyzed with Spot Detector application. A minimum of 300 cells/well were analyzed.
Alanine mutant peptides were tested for activity in both BLA and ferroportin internalization assays.
Using these antibodies, it was possible to develop a quantitative cellular imaging assay that measured hepcidin-induced FPN internalization. […]
Test [4] concerns the target human ferroportin with V5 tag, on doxycycline-induced T-REx/FPN-V5 cells (human) (UniProt Q9NP59).
The target is the same in test [5]. The source holds these as a separate data set.
In test [6] the target is endogenous human ferroportin on T47D cells (human (endogenous in T47D)) (UniProt Q9NP59).
Test [7] deals with human ferroportin with V5 tag, on doxycycline-induced T-REx/FPN-V5 cells (human) (UniProt Q9NP59). This is another data set of the same source.

The term inhibition denotes the drop in the measured response relative to a control, in per cent. `O=S(=O)(c1ccc(Cl)cc1)c1cnc2ccccc2n1` [Compound 1, 2-[(4-chlorophenyl)sulfonyl]quinoxaline]: the IC50 in test [1] amounted to 0.141 µM; in test [2], 0.1 µM. Also, in test [2] (100 μM compound, 1 h, in cells, read-out: inhibition of hepcidin uptake), the inhibition at 100 µM worked out at 100%.
Broadly, the EC50 is the concentration needed to bring the measured effect to its halfway point. Higher therefore signals weaker potency. As to `CC[C@H](C)[C@@H]1NC(=O)[C@@H](NC(=O)[C@@H](NC(=O)[C@@H]2CCCN2C(=O)[C@H](Cc2ccccc2)NC(=O)[C@H](Cc2c[nH]cn2)NC(=O)[C@@H](NC(=O)[C@@H](N)CC(=O)O)[C@@H](C)O)[C@@H](C)CC)CSSC[C@@H](C(=O)N[C@@H](CCCCN)C(=O)N[C@H](C(=O)O)[C@@H](C)O)NC(=O)[C@@H]2CSSC[C@@H]3NC(=O)[C@@H]4CSSC[C@H](NC(=O)[C@H](Cc5ccccc5)NC1=O)C(=O)N[C@@H](CSSC[C@H](NC(=O)[C@H](CCCCN)NC(=O)[C@H](CCCCNC(=O)CCCCCNC(=O)c1ccc5c(c1)C(=O)OC51c5ccc(N)cc5Oc5cc(N)ccc51)NC(=O)[C@H](CCCNC(=N)N)NC(=O)[C@H](Cc1c[nH]cn1)NC3=O)C(=O)NCC(=O)N[C@@H](CCSC)C(=O)N2)C(=O)NCC(=O)N4` [RhoG-hepcidin, [Lys17(N^ε-Rhodamine green amino hexanoyl)]hepcidin] (H-DTHFPICIFCCGCCHRK([Ahx-X1])KCGMCCKT-OH; disulfide 7-23, 10-13, 11-19, 14-22 (inferred); C-terminus assumed), in the test with FPN (T-REx/FPN-V5 cells), the “reversibility of binding to FPN” value is on record as “reversible”. In addition, the concentration for a half-maximal effect (EC50) in test [3] is ~0.03 µM.
As to `NC(=O)CI` [iodoacetamide, reference compound], in test [2] (100 μM compound, 1 h, in cells), the “inhibition of hepcidin uptake” value is ~ 50%. The IC50 in test [2] turned out to be 86 µM.
“[Lys17(N-epsilon-Rhodamine green amino hexanoyl)]hepcidin (peptide)” showed an EC50 of FPN internalization, T-REx/FPN-V5 cells, 3 h, cellular imaging with Ab 38C8 in test [4] of 0.03 µM.
In test [5], hepcidin D1A (peptide) displayed an FPN internalization assay EC50 (surface FPN by cellular imaging, T-REx/FPN-V5 cells) of 0.185 µM and an Iron response assay EC50 (β-lactamase reporter under the ferritin IRE, T-REx/FPN-V5/IRE-BLA cells) of 0.144 µM.
Regarding hepcidin F4A (peptide), in test [5], the FPN internalization assay EC50 (surface FPN by cellular imaging, T-REx/FPN-V5 cells) was > 3.6 µM and the Iron response assay EC50 (β-lactamase reporter under the ferritin IRE, T-REx/FPN-V5/IRE-BLA cells) is > 3.6 µM.
In test [5], hepcidin F9A (peptide) returned an FPN internalization assay EC50 (surface FPN by cellular imaging, T-REx/FPN-V5 cells) of 0.25 µM and an Iron response assay EC50 (β-lactamase reporter under the ferritin IRE, T-REx/FPN-V5/IRE-BLA cells) of 0.392 µM.
Regarding hepcidin G12A (peptide), in test [5], the FPN internalization assay EC50 (surface FPN by cellular imaging, T-REx/FPN-V5 cells) worked out at 0.212 µM and the Iron response assay EC50 (β-lactamase reporter under the ferritin IRE, T-REx/FPN-V5/IRE-BLA cells) was found to be 0.107 µM.
In test [5], hepcidin G20A (peptide) came in with an FPN internalization assay EC50 (surface FPN by cellular imaging, T-REx/FPN-V5 cells) of 0.309 µM and an Iron response assay EC50 (β-lactamase reporter under the ferritin IRE, T-REx/FPN-V5/IRE-BLA cells) of 0.288 µM.
In test [5], hepcidin H3A (peptide) registered an FPN internalization assay EC50 (surface FPN by cellular imaging, T-REx/FPN-V5 cells) of 0.308 µM and an Iron response assay EC50 (β-lactamase reporter under the ferritin IRE, T-REx/FPN-V5/IRE-BLA cells) of 0.298 µM.
In test [5], hepcidin H15A (peptide) showed an FPN internalization assay EC50 (surface FPN by cellular imaging, T-REx/FPN-V5 cells) of 0.01 µM and an Iron response assay EC50 (β-lactamase reporter under the ferritin IRE, T-REx/FPN-V5/IRE-BLA cells) of 0.012 µM.
Take hepcidin I6A (peptide): in test [5], the FPN internalization assay EC50 (surface FPN by cellular imaging, T-REx/FPN-V5 cells) came to 0.247 µM and the Iron response assay EC50 (β-lactamase reporter under the ferritin IRE, T-REx/FPN-V5/IRE-BLA cells) came to 0.634 µM.
For hepcidin I8A (peptide), in test [5], the FPN internalization assay EC50 (surface FPN by cellular imaging, T-REx/FPN-V5 cells) is > 3.6 µM and the Iron response assay EC50 (β-lactamase reporter under the ferritin IRE, T-REx/FPN-V5/IRE-BLA cells) is > 3.6 µM.
In test [5], hepcidin K18A (peptide) gave an FPN internalization assay EC50 (surface FPN by cellular imaging, T-REx/FPN-V5 cells) of 0.012 µM and an Iron response assay EC50 (β-lactamase reporter under the ferritin IRE, T-REx/FPN-V5/IRE-BLA cells) of 0.013 µM.
In test [5], hepcidin K24A (peptide) had an FPN internalization assay EC50 (surface FPN by cellular imaging, T-REx/FPN-V5 cells) of 0.267 µM and an Iron response assay EC50 (β-lactamase reporter under the ferritin IRE, T-REx/FPN-V5/IRE-BLA cells) of 0.266 µM.
Regarding hepcidin M21A (peptide), in test [5], the FPN internalization assay EC50 (surface FPN by cellular imaging, T-REx/FPN-V5 cells) amounted to 0.162 µM and the Iron response assay EC50 (β-lactamase reporter under the ferritin IRE, T-REx/FPN-V5/IRE-BLA cells) was 0.112 µM.
Consider hepcidin P5A (peptide), for which, in test [5], the FPN internalization assay EC50 (surface FPN by cellular imaging, T-REx/FPN-V5 cells) is 0.474 µM and the Iron response assay EC50 (β-lactamase reporter under the ferritin IRE, T-REx/FPN-V5/IRE-BLA cells) turned out to be 0.18 µM.
hepcidin R16A (peptide): in test [5], the FPN internalization assay EC50 (surface FPN by cellular imaging, T-REx/FPN-V5 cells) is 0.056 µM and the Iron response assay EC50 (β-lactamase reporter under the ferritin IRE, T-REx/FPN-V5/IRE-BLA cells) was 0.057 µM.
In test [5], hepcidin S17A (peptide) yielded an FPN internalization assay EC50 (surface FPN by cellular imaging, T-REx/FPN-V5 cells) of 0.05 µM and an Iron response assay EC50 (β-lactamase reporter under the ferritin IRE, T-REx/FPN-V5/IRE-BLA cells) of 0.066 µM.
In test [5], hepcidin T2A (peptide) had an FPN internalization assay EC50 (surface FPN by cellular imaging, T-REx/FPN-V5 cells) of 0.029 µM and an Iron response assay EC50 (β-lactamase reporter under the ferritin IRE, T-REx/FPN-V5/IRE-BLA cells) of 0.029 µM.
In test [5], hepcidin T25A (peptide) returned an FPN internalization assay EC50 (surface FPN by cellular imaging, T-REx/FPN-V5 cells) of 0.039 µM and an Iron response assay EC50 (β-lactamase reporter under the ferritin IRE, T-REx/FPN-V5/IRE-BLA cells) of 0.053 µM.
In test [5], “synthetic human hepcidin (wild type, unlabeled) (peptide)” yielded an FPN internalization assay EC50 (surface FPN by cellular imaging, T-REx/FPN-V5 cells) of 0.051 µM and an Iron response assay EC50 (β-lactamase reporter under the ferritin IRE, T-REx/FPN-V5/IRE-BLA cells) of 0.063 µM. The EC50 of hepcidin-induced FPN internalization, T47D cells, 6 h, surface FPN on live cells by cellular imaging with Ab 38C8 in test [6] stood at 0.013 µM. Further, in test [7], the EC50 of hepcidin-induced FPN internalization, T-REx/FPN-V5 cells, 6 h, surface FPN on live cells by cellular imaging with Ab 38C8 came to 0.011 µM.
